The results in this text go back to patent EP1832653A1 (INSTITUTE OF VIROLOGY, dated 2007).

B1: oligopeptide … (aa 75-98) [SEQ ID NO: 106] (peptide)
peptide: EDPPGEEDLPGEEDLPGEEDLPEV
notes: Synthetic; cysteine added onto the C-end; C-terminal acid
B2: phage-displayed heptapeptide of SEQ ID NO: 137 (without the added alanines), Ph.D.-7 library (peptide)
peptide: KKMKRRK
notes: Residues 2-8 follow from 'after adding alanine on both sides'

Experiment [1] concerns the target T1, monoclonal antibody M75 (MAb M75), secreted from the hybridoma VU-M75, ATCC HB 11128.
T1 construct: also called MAb 75
As to the kind of experiment: competition ELISA: peptide in solution against immobilized GST-MN for M75. In general terms: ELISA stands for enzyme-linked immunosorbent assay.

The target of experiment [2] is B1. As to the kind of experiment: phage display panning, 5 cycles, on immobilized peptide SEQ ID NO: 106.

One may read the IC50 as the concentration needed to halve the response being measured. High values mean weaker potency in that assay, low ones greater potency in that assay.

In experiment [1], B1 registered a half-maximal inhibitory concentration (IC50) of 1 ng/mL.
As to B2, the binding result in experiment [2] is “binds”.
The same measure, in the same setting: for ITFNAQY [phage-displayed heptapeptide of SEQ ID NO: 138 (without the added alanines), Ph.D.-7 library] the value was “binds”; for SASAPVS [phage-displayed heptapeptide of SEQ ID NO: 139 (without the added alanines), Ph.D.-7 library], “binds”.
